The values below come from patent US20200397913A1, “AXL-SPECIFIC ANTIBODY-DRUG CONJUGATES FOR CANCER TREATMENT” (GENMAB A/S, priority 2015, published 2020).

Marks after values point to notes of the source that are not given here.

The subject of test [1] is CV1664 tumors. The test is described as follows: Cervical cancer PDX model CV1664. The conditions noted are these: 20 mg/kg intraperitoneally at day 0 and 7. The test is classed as in vivo, BALB/c nude mice. The procedure: Inoculation of tumor fragments into BALB/c nude mice and randomization was performed as described in Example 21.
The subject of test [2] is ES0195 tumors. The test is described as follows: Esophageal cancer PDX model ES0195. It is filed as in vivo, BALB/c nude mice. The conditions noted are these: 20 mg/kg i.p. at day 0, 7 and 14. The procedure:
Tumor fragments from donor mice bearing patient-derived esophageal xenografts (ES0195) were used for inoculation into BALB/c nude mice. Each mouse was inoculated subcutaneously at the right flank with one tumor fragment (2-3 mm in diameter) and tumors were allowed to grow until the tumor volume was about 150 mm^3. […] The antibodies and ADCs were dosed intravenously (i.v.) at 4 mg/kg at day of randomization (day 0) and day 7. Paclitaxel was dosed intra-peritoneally (i.p.) at 20 mg/kg at day 0, 7, and 14. Tumor volumes (mm^3) were monitored twice weekly and were calculated from caliper (PLEXX) measurements as: 0.52×(length)×(width)^2.

In test [3] the target is T1, AXLECDHis (extracellular domain of human AXL) (Homo sapiens, UniProt P30530).
T1 construct: the extracellular domain (ECD) of human AXL (aa 1-447) with a C-terminal His tag (AXLECDHis); His tag (C); made in house; host or cells: HEK-293F
The test is described as follows: Binding affinity by Bio-Layer Interferometry (Octet). To be noted: soluble AXLECDHis, 30° C, 1:1 model.

Test [4] relates to PAXF1657 tumors. The test can be described thus: PAXF1657 pancreas cancer PDX model. It is filed as in vivo, NMRI nu/nu mice. The conditions noted are these: dose not stated in the sentence (FIG. 10B, 10C). The procedure:
Human pancreas tumor tissue was subcutaneously implanted in the left flank of 5-7 weeks old female NMRI nu/nu mice. […] At day of randomization (day 0), the 3 ADCs were dosed intravenously (i.v.) at either 4 mg/kg or 2 mg/kg, and the control group received a single dose of IgG1-b12 (4 mg/kg). Tumor volumes (mm^3) were monitored twice weekly and were calculated from caliper (PLEXX) measurements as: 0.52×(length)×(width)^2.

The target in test [5] is T2, human AXL with a cynomolgus monkey extracellular domain (ECD) (Homo sapiens, UniProt P30530, P441T/S191N/S285L/T105A/T112A/T125N/T443A).
T2 construct: aa 1-447); expressed in transfected cells; host or cells: HEK293T
The test is described as follows: Flow cytometry binding to HEK293T cells transfected with human AXL with cynomolgus ECD. The conditions noted are these: at least 3 experiments. For orientation: Flow cytometry measures light scatter and fluorescence of single cells or particles in a stream.

Test [6] has as its target T3, human AXL transiently expressed by HEK-293F cells (Homo sapiens, UniProt P30530).
T3 construct: HEK-293F cells transiently expressing full length human AXL; expressed in transfected cells; host or cells: HEK-293F
The test is described as follows: Homogeneous antigen specific screening assay (FMAT). The conditions noted are these: binding to human AXL on HEK-293F cells.

In test [7] the target is Gas6 binding to AXL on A431 cells (Homo sapiens, UniProt P30530). The test can be described thus: Gas6 binding to A431 cells pre-incubated with AXL antibodies. Details: endogenous in cells; host or cells: A431. The conditions noted are these: pre-incubation with 10 μg/mL antibody; control antibody b12. The procedure: Alternatively, A431 cells were pre-incubated with 10 μg/mL AXL antibodies (15 minutes, 4° C.) to assess if the AXL ligand Gas6 could still bind in presence of AXL antibodies. […] After washing three times in PBS/0.1% BSA/0.02% azide, cells were incubated with mouse anti-Gas6 IgG2a (R&D Systems; cat no. MAB885) at 4° C. for 30 min. After washing three times in PBS/0.1% BSA/0.02% azide, cells were incubated with FITC-labelled goat anti-mouse IgG (Dako, Heverlee, Belgium; cat no. F049702) at 4° C. for 30 min in the dark. Next, cells were washed twice in PBS/0.1% BSA/0.02% azide, resuspended in 120 μL PBS/0.1% BSA/0.02% azide and analyzed on a FACS Cantoll (BD Biosciences).
(§1) Binding curves were analyzed using non-linear regression (sigmoidal dose-response with variable slope) using GraphPad Prism V5.04 software (GraphPad Software, San Diego, Calif., USA).
Therefore, binding of Gas6 to A431 cells that had been pre-incubated with 10 μg/mL AXL antibodies was tested as described in Example 2.

Test [8] concerns the target T4, human AXL (Homo sapiens, UniProt P30530).
T4 construct: expression constructs for full length human AXL; expressed in transfected cells; host or cells: HEK293T
The test can be described thus: Flow cytometry binding to HEK293T cells transfected with full length human AXL. To be noted: at least 3 experiments.

Test [9] concerns the target T5, AXL on A431 cells (Homo sapiens, UniProt P30530).
T5 construct: AXL-positive A431 cells were incubated; endogenous in cells; host or cells: A431
The test can be described thus: Antibody binding to A431 cells with or without Gas6 pre-incubation.

Test [10] deals with A431 cells. The test is described as follows: Antibody-dependent cell-mediated cytotoxicity (51Cr release). It is filed as cell-based, human. The conditions noted are these: concentrations up to 10 μg/mL. Here is the method:
The ability of anti-AXL antibodies to induce ADCC of A431 epidermoid carcinoma cells was determined as explained below. As effector cells, peripheral blood mononuclear cells from healthy volunteers (UMC Utrecht, The Netherlands) were used.
A431 cells were collected (5×10^6 cells) in culture medium (RPMI 1640 culture medium supplemented with 10% fetal calf serum (FSC)), to which 100 μCi ^51Cr (Chromium-51; Amersham Biosciences Europe GmbH, Roosendaal, The Netherlands) had been added, and the mixture was incubated in a 37° C. water bath for 1 hour (hr) while shaking. After washing of the cells (twice in PBS, 1200 rpm, 5 min), the cells were resuspended in RPMI1640/10% FSC and counted by trypan blue exclusion. Cells were diluted to a density of 1×10^5 cells/mL.
Peripheral blood mononuclear cells (healthy volunteers, UMC Utrecht, Utrecht, The Netherlands) were isolated from 45 mL of freshly drawn heparin blood by Ficoll (Bio Whittaker; lymphocyte separation medium, cat 17-829E) according to the manufacturer's instructions. After resuspension of cells in RPMI1640/10% FSC, cells were counted by trypan blue exclusion and diluted to a density of 1×10^7 cells/mL.
50 μl of ^51Cr-labeled targets cells were pipetted into 96-well plates, and 50 μl of antibody were added, diluted in RPMI1640/10% FSC (3-fold dilutions at final concentrations range 0.01-10 μg/mL). Cells were incubated (room temperature (RT), 15 min), and 50 μl effector cells were added, resulting in an effector to target ratio of 100:1 (for determination of maximal lysis, 100 μl 5% Triton-X100 was added instead of effector cells; for determination of spontaneous lysis, 50 μL target cells and 100 μL RPMI1640/10% FSC were used). Cells were incubated overnight at 37° C. and 5% CO2. After spinning down cells (1200 rpm, 10 min), 70 μL of supernatant was harvested into micronic tubes, and counted in a gamma counter. The percentage specific lysis was calculated as follows:
% specific lysis=(cpm sample−cpm target cells only)/(cpm maximal lysis−cpm target cells only),
wherein cpm is counts per minute.

For test [11], the system named is MDA-MB-231 and Calu-1 cells. The test is described as follows: Internalization of cell surface bound HuMab-AXL by flow cytometry. The test is classed as cell-based, human. To be noted: 1 hour 4° C, then overnight 37° C versus 4° C. Here is the method:
Internalization of cell surface bound HuMab-AXL antibodies to MDA-MB-231 and Calu-1 cells (human lung carcinoma cell line; ATCC, catalognumber HTB-54) was evaluated by flow cytometry. 50,000 cells were seeded in 96-well tissue culture plates and allowed to attach for 6 hrs at 37° C. Plates were incubated at 4° C. for 30 minutes before incubation with serial dilutions of AXL-antibodies (final concentration range 0.0032-10 μg/mL) at 4° C. for 1 hour. Subsequently, the medium was replaced by tissue culture medium without antibody and cells were incubated overnight (16-18 hours) at 37° C. or 4° C. […] Finally, cells were washed twice in PBS/0.1% BSA/0.02% azide, resuspended in 120 μL PBS/0.1% BSA/0.02% azide and analyzed on a FACS Cantoll (BD Biosciences).
as §1

Test [12] addresses T6, human AXL with a mouse ECD (Mus musculus, UniProt Q00993, A791T/A867T/C878S/D603E/D853E/E609A/F637Y/G606S/G869S/H824Y/L452V/L825P/L872Q/P881A/R785Q/R828P/S823G/S856P/S873P/T871A/V766A).
T6 construct: aa 1-441); expressed in transfected cells; host or cells: HEK293T
The test is described as follows: Flow cytometry binding to HEK293T cells transfected with human AXL with mouse ECD. The conditions noted are these: 0.0024-10 μg/mL.

T6 sequence (Q00993 19-888 with the stated changes): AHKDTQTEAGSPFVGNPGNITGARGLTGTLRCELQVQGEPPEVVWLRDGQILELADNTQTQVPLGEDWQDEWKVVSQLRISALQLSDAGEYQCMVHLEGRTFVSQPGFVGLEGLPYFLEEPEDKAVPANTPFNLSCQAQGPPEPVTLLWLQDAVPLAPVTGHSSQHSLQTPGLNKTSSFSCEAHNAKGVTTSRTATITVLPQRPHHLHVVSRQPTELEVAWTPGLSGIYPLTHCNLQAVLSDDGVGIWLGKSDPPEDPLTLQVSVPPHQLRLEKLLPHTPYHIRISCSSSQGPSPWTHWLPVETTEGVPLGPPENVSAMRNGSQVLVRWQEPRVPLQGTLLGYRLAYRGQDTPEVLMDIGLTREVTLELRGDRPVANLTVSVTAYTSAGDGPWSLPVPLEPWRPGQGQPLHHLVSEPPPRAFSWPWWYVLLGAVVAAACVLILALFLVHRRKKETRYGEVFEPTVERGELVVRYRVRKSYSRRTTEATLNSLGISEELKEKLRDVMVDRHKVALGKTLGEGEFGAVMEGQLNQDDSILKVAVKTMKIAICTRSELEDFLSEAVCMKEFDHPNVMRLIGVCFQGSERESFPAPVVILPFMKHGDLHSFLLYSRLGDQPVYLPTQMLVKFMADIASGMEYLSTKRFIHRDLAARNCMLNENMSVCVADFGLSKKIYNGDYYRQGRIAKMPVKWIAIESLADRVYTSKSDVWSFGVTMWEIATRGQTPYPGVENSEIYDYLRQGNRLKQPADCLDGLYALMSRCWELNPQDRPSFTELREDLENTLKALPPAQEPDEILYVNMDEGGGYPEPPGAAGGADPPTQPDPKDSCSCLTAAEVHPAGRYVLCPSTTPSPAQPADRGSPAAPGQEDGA

With `CC(=O)O[C@H]1C(=O)[C@@]2(C)[C@H]([C@H](OC(=O)c3ccccc3)[C@]3(O)C[C@H](OC(=O)[C@H](O)[C@@H](NC(=O)c4ccccc4)c4ccccc4)C(C)=C1C3(C)C)[C@]1(OC(C)=O)CO[C@@H]1C[C@@H]2O` [paclitaxel, reference compound], the anti-tumor activity result is “induced partial tumor regression” in test [1] and “tumor growth inhibition” in test [2].

B1: IgG1-AXL-148: human IgG1,κ anti-AXL antibody, VH SEQ ID NO:5, VL SEQ ID NO:6; Ig2 domain binding (antibody, V domains shown)
VH: EVQLLESGGGLVQPGGSLRLSCAASGFTFSSYAMTWVRQAPGKGLEWVSAISISGGSTFYADSVKGRFTISRDNSKNTLYLQMNSLRAEDTAVYYCRGYSGYVYDAFDFWGQGTMVTVSS
VL: DIQMTQSPSSLSASVGDRVTITCRASQGISNWLAWYQQKPEKAPKSLIYAASSLQSGVPSRFSGSGSGTDFTLTISSLQPEDFATYYCQQYNSYPLTFGGGTKVEIK
modifications: homo sapiens
With B1, in test [3], the Kdis came to 0.0044 s⁻¹ and the Kon came to 230000 M⁻¹ s⁻¹. Besides, in [4], the anti-tumor activity result was “did not result in anti-tumor activity”. Further, the “Binding EC50 cynomolgus AXL Average (s.d.)” value in test [5] is given as 0.152 (0.080) μg/mL. Moreover, the Maximal binding in test [6] worked out at 3499 Arbitrary units. The “Gas6 binding: Maximal binding in presence of AXL antibodies (% of binding in presence of control antibody)” value in test [7] stood at 106%. For the same molecule, in [8], the “Binding EC50 human AXL Average (s.d.)” value is recorded as 0.094 (0.059) μg/mL. In addition, the “Antibody binding to A431 cells: EC50 w/o Gas6 mean (s.d.)” value in test [9] (no Gas6 pre-incubation) is reported as 0.11 (0.13) μg/mL. The “Antibody binding to A431 cells: EC50 in presence of Gas6 mean (s.d.)” value in test [9] (pre-incubation with 10 μg/mL Gas6) is on record as 0.20 (0.30) μg/mL. For the same molecule, the “induction of ADCC” value in [10] is listed as “did not induce significant ADCC”. In addition, the “internalization of membrane-bound antibody” value in [11] is given as “internalize”. Further, the “binding to AXL with a mouse ECD” value in test [12] is “not detectable”.
